System: apRAD51C-CTD-1 WT (Alvinella pompejana)
Experiment: fluorescence polarization
Settings: FP: 20 mM HEPES pH 8, 80 mM NaCl, 2.5 mM ATP, 2.5 mM MgCl2, 1 mM DTT, 0.1 mg/mL BSA, 10 nM DNA, 37 C 20 min, EMSA: 20 mM Tris pH 8.0, 150 mM KCl, 4 C 15 min

Sequence: TTTTTTTTTTTTTTTTTTTT [poly-20dT]
- Kd: 1.25 µM

From publication PMC10366140
